Data taken from patent US20260234245A1 (ELTHERA, published 2026).
Positions count from the first letter of the chain named.

T1: recombinant hexahistidine-tagged human CHL1 (human, UniProt O00533 25-1082, limits assumed)
T1 construct: Hexahistidine-tagged; also called plate-coated human CHL1; close homolog of L1 (CHL1)
T1 sequence (looked up): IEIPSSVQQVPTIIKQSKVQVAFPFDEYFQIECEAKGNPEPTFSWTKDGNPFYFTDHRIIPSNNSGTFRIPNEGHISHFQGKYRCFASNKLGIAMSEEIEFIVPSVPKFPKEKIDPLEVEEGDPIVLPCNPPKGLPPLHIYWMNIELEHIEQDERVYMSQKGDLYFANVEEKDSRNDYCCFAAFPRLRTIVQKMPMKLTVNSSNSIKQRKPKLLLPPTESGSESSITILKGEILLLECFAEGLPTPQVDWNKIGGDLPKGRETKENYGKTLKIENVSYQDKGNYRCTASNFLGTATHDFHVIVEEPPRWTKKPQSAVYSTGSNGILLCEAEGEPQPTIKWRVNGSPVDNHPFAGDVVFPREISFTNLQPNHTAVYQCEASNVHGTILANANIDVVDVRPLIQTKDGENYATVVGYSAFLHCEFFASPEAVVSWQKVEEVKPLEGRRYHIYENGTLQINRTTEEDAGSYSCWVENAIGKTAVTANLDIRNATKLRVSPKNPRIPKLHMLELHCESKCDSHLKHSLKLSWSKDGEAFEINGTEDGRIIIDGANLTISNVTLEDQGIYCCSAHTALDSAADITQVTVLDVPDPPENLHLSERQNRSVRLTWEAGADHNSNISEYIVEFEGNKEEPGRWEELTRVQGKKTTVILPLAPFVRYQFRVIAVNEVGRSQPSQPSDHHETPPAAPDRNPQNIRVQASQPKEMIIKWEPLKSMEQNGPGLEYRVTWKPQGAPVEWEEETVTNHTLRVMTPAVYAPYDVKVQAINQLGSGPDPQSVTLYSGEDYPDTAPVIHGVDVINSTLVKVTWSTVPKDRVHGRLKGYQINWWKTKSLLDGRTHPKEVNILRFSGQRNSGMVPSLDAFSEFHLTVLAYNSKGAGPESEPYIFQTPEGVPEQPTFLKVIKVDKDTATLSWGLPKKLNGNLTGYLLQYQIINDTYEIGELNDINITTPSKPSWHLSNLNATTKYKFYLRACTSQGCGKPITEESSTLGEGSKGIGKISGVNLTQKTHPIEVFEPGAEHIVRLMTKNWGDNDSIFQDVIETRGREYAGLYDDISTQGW

T2: recombinant hexahistidine-tagged human Neurofascin (human, UniProt O94856 25-1217, limits assumed)
T2 construct: Hexahistidine-tagged; also called plate-coated human Neurofascin
T2 sequence (looked up): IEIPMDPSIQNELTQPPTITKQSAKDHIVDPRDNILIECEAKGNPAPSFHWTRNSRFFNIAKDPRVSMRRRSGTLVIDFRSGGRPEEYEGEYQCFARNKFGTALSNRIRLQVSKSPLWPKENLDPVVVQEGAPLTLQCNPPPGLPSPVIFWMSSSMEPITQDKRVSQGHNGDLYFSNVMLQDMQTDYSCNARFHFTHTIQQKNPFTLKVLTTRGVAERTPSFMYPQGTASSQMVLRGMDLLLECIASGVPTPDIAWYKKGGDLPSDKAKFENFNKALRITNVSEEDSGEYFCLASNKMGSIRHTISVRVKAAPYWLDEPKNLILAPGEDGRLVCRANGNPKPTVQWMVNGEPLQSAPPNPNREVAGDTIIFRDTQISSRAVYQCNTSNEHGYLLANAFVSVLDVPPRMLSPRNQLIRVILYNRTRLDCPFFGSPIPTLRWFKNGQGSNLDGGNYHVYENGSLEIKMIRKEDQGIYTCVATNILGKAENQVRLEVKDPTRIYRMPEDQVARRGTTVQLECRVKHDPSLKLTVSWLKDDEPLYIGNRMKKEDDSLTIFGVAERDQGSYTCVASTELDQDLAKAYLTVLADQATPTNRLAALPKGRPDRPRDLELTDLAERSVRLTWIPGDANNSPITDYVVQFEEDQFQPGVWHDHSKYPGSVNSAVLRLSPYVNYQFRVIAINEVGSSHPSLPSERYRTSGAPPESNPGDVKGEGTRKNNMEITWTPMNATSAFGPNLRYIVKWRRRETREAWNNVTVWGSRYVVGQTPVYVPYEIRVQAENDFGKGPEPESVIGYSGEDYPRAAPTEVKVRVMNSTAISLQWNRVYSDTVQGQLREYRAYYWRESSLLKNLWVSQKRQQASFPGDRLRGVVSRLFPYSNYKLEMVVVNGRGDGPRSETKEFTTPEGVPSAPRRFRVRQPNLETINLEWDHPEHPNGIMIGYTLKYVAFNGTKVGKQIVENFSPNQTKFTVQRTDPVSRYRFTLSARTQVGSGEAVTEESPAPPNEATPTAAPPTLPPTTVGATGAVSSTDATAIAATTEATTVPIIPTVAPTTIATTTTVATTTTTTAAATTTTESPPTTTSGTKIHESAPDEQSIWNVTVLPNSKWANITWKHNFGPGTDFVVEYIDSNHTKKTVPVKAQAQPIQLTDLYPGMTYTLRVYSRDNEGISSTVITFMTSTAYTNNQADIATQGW

B1: OV549.20 mouse IgG2a (antibody, V domains shown)
VH: DVQLQESGPGLVKPSQSLSLTCTVTGYSITSDYAWNWIRQFPGNKVEWMGYISYSGSFSYHPSLKSRISITRDTSKNQFFLQLSSVTTEDTATYYCARSFSYGYGFAYWGQGTLVTVSS
VL: DIVMTQSHKFMSTSVGDRVNITCKASQDVSSAVAWYQQKPGQSPKLLIYSASYRYTGVPDHFTGSGSGTDFTFTISSVQAEDLAVYYCQQHYSTPWTFGGGTKLEIKR
modifications: N-glycosylation motif Asn-Ile-Thr in the variable region; glycosylated and non-glycosylated light chain forms present
notes: Recombinant mouse IgG2a expressed in CHO K1 cells; also called OV549.20 (murine); mAb OV549.20
B2: H2L1 (antibody, V domains shown)
VH: QVQLQESGPGLVKPSQTLSLTCTVTGYSITSDYAWNWIRQFPGNGLEWIGYISYSGSFSYHPSLKSRVTISRDTSKNQFSLKLSSVTAADTAVYYCARSFSYGYGFAYWGQGTLVTVSS
VL: DIQMTQSPSSLSASVGDRVTITCKASQDVSSAVAWYQQKPGKAPKLLIYSASYRYTGVPSRFSGSGSGTDFTFTISSLQPEDFATYYCQQHYSTPWTFGGGTKVEIK
notes: also called humanized antibody variant H2L1
B3: H4L1 (antibody, V domains shown)
VH: B2 VH with G45K, L46V, I49M
VL: B2 VL
notes: also called humanized antibody variant H4L1
B4: H2L2 (antibody, V domains shown)
VH: B2 VH
VL: B2 VL with Q3V, K42Q, A43S, S60D, V104L
notes: also called humanized antibody variant H2L2
B5: H3L2 (antibody, V domains shown)
VH: B2 VH with I49M
VL: B2 VL with Q3V, K42Q, A43S, S60D, V104L
notes: also called humanized antibody variant H3L2
B6: H3L1 (antibody, V domains shown)
VH: B2 VH with I49M
VL: B2 VL
notes: also called humanized antibody variant H3L1
B7: H4L2 (antibody, V domains shown)
VH: B2 VH with G45K, L46V, I49M
VL: B2 VL with Q3V, K42Q, A43S, S60D, V104L
notes: also called humanized antibody variant H4L2

Molecular target: T1, recombinant hexahistidine-tagged human …
Experiment: direct ELISA on plate-coated human CHL1-His, HRP goat anti-mouse detection
Method: (§1) Recombinant human L1CAM-human Fc and human NrCAM-human Fc fusion proteins, as well as recombinant hexahistidine-tagged versions of human CHL1 and Neurofascin, respectively, were added to ELISA plates at a concentration of 1 μg/mL in 50 mM carbonate buffer pH 9.6 (100 μL per well). Plates were incubated overnight at 4° C., washed 5 times with PBS/0.05% Tween, and blocked by the addition of 200 μL per well PBS/0.05% Tween/1% Bovine serum albumin (BSA). […] As positive controls the same dilution series were prepared for commercial mouse antibodies directed against L1CAM (clone UJ127.11, NovusBio), human NrCAM (clone 308000, Creative Diagnostics), human CHL1 (clone 6E6E4, Sino Biological) and human Neurofascin (clone 727030, R&D systems). Plates were washed 5 times with PBS/0.05% Tween, and 100 μL per well of the antibody dilution series were added to the plates. After an incubation for 1 hour at room temperature, plates were washed again and 100 μL per well of a horse-radish peroxidase conjugated polyclonal goat anti-mouse antibody (diluted 1:1000 in PBS/0.05% Tween/1% BSA) was added. […] After an incubation of 8 minutes at room temperature, reactions were stopped by the addition of 50 μL per well 0.16 M H₂SO₄, and absorption at 450 nm was determined in a microplate reader.

Binder | binding result
B1 | no binding (tested: 1 µg/mL)

Molecular target: T3, soluble His-tagged human L1CAM (extracellular portion, amino acids 20 to 1120) (human, UniProt P32004 20-1120)
T3 construct: range 20-1120; Expressed in HEK cells with an N-terminal leader peptide for secretion (not part of the assayed protein)
T3 sequence (P32004 other isoform, or with tags, fused parts or gaps limits assumed): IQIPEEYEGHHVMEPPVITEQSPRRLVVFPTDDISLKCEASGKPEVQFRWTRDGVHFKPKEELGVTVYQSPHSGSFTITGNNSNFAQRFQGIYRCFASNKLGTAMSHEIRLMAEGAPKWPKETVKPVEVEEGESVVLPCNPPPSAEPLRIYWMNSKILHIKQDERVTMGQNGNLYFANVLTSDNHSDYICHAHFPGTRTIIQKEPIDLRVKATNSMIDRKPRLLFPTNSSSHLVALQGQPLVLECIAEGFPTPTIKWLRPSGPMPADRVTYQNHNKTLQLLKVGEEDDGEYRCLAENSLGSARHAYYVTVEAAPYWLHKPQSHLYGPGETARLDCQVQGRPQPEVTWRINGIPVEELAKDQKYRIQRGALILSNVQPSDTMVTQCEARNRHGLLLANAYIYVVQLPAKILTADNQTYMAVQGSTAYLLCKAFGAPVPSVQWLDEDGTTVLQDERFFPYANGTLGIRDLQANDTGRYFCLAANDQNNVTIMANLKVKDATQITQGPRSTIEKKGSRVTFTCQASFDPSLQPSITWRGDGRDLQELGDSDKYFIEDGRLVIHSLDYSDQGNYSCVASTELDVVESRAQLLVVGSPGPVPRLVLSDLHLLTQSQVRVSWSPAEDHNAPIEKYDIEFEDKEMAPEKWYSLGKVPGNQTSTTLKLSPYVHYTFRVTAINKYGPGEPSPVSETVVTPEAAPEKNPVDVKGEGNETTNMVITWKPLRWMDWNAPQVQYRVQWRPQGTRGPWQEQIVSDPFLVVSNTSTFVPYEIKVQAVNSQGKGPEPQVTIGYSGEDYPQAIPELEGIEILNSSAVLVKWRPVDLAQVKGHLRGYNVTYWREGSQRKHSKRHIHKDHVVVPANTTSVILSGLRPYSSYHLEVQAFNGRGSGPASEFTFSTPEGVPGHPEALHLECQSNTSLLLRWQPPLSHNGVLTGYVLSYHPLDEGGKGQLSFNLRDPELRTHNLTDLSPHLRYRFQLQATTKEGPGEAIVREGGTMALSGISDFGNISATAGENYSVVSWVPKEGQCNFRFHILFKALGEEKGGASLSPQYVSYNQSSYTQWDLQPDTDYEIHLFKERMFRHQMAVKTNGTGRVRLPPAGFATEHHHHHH
Experiment: SPR (Biacore T200), antibody captured on C1 Protein A chip, His-tagged human L1CAM as analyte 10, 20, 40 nM, 1:1 Langmuir fit
Method: Monovalent kinetic binding constants of the eight humanized antibody variants towards human L1CAM were determined by surface plasmon resonance using a Biacore T200 instrument. Antibodies were captured via their Fc regions on a C1 Protein A Chip (GE Healthcare), and soluble His-tagged human L1CAM was injected as analyte in 3 different concentrations (10, 20 and 40 nM), using 10 mM HEPES/150 mM NaCl/3 mM EDTA/0.05% Tween 20 as running buffer. Detected resonance units (sensorgrams) were fitted to a 1:1 Langmuir binding model and association (kₐ) and dissociation (kd) rate constants as well as the affinity constants (KD) were calculated.

Binder | Kd [nM] | koff [s⁻¹] | kon [M⁻¹ s⁻¹]
B2 | 4.4 | 0.000751 | 170000
B3 | 4.7 | 0.000847 | 179000
B4 | 6 | 0.000867 | 144000
B5 | 6.8 | 0.000887 | 131000
B6 | 5.1 | 0.000858 | 168000
B7 | 6.3 | 0.000859 | 137000

Molecular target: T2, recombinant hexahistidine-tagged human …
Experiment: direct ELISA on plate-coated human Neurofascin-His, HRP goat anti-mouse detection
Method: as §1

Binder | binding result
B1 | no binding (tested: 1 µg/mL)

Molecular target: T4, recombinant human NrCAM-human Fc fusion protein (human, UniProt Q92823 25-1167, limits assumed)
T4 construct: also called plate-coated human NrCAM; Neuronal cell adhesion molecule (NrCAM)
T4 sequence (Q92823 25-1167 limits assumed): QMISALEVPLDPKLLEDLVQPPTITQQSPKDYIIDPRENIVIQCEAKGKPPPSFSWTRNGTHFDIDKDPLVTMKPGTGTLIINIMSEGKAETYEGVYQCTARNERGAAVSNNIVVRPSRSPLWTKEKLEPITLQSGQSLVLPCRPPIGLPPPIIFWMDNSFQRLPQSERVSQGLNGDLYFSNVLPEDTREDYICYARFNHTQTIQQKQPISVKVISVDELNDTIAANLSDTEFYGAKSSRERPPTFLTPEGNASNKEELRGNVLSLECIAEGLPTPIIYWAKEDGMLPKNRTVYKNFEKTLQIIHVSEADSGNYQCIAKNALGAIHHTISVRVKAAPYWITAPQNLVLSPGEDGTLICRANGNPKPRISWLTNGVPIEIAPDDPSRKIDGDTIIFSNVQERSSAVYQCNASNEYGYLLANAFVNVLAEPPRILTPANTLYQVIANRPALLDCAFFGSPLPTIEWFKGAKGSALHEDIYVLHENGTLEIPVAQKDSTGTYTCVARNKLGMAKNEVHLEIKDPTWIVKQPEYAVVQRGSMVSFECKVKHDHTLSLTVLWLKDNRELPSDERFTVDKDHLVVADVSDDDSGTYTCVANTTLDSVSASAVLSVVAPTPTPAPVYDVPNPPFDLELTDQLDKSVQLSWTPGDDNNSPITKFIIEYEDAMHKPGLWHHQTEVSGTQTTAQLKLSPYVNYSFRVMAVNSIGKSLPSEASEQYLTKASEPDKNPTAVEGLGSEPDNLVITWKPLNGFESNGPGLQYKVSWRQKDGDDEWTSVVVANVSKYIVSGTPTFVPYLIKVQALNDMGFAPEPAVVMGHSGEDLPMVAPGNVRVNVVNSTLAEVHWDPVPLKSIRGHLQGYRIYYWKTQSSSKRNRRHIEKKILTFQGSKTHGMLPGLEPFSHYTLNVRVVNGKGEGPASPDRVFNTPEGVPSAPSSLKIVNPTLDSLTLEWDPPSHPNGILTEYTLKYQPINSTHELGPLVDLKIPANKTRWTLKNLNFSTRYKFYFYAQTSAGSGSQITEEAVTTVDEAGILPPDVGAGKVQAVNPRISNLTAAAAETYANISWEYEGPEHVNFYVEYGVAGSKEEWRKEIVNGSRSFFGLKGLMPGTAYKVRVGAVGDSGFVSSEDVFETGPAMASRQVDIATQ
Experiment: direct ELISA on plate-coated human NrCAM (panel titled 'human NrCAM-His'; the text calls it an NrCAM-human Fc fusion), HRP goat anti-mouse detection
Method: as §1

Binder | binding result
B1 | no binding (tested: 1 µg/mL)
